Experimental data from paper doi:10.1101/2021.06.09.447696, “A dual allosteric pathway drives human mitochondrial Lon” (bioRxiv, 2021).
Values belong to the binder of their own block, whether it stands above or below them.

B3: human mitochondrial Lon (68-959) K898A (enzyme, UniProt P36776 68-959, looked up)
chain: FWEASSRGGGAFSGGEDASEGGAEEGAGGAGGSAGAGEGPVITALTPMTIPDVFPHLPLIAITRNPVFPRFIKIIEVKNKKLVELLRRKVRLAQPYVGVFLKRDDSNESDVVESLDEIYHTGTFAQIHEMQDLGDKLRMIVMGHRRVHISRQLEVEPEEPEAENKHKPRRKSKRGKKEAEDELSARHPAELAMEPTPELPAEVLMVEVENVVHEDFQVTEEVKALTAEIVKTIRDIIALNPLYRESVLQMMQAGQRVVDNPIYLSDMGAALTGAESHELQDVLEETNIPKRLYKALSLLKKEFELSKLQQRLGREVEEKIKQTHRKYLLQEQLKIIKKELGLEKDDKDAIEEKFRERLKELVVPKHVMDVVDEELSKLGLLDNHSSEFNVTRNYLDWLTSIPWGKYSNENLDLARAQAVLEEDHYGMEDVKKRILEFIAVSQLRGSTQGKILCFYGPPGVGKTSIARSIARALNREYFRFSVGGMTDVAEIKGHRRTYVGAMPGKIIQCLKKTKTENPLILIDEVDKIGRGYQGDPSSALLELLDPEQNANFLDHYLDVPVDLSKVLFICTANVTDTIPEPLRDRMEMINVSGYVAQEKLAIAERYLVPQARALCGLDESKAKLSSDVLTLLIKQYCRESGVRNLQKQVEKVLRKSAYKIVSGEAESVEVTPENLQDFVGKPVFTVERMYDVTPPGVVMGLAWTAMGGSTLFVETSLRRPQDKDAKGDKDGSLEVTGQLGEVMKESARIAYTFARAFLMQHAPANDYLVTSHIHLHVPEGATPKDGPSAGCTIVTALLSLAMGRPVRQNLAMTGEVSLTGKILPVGGIKEATIAAKRAGVTCIVLPAENKKDFYDLAAFITEGLEVHFVEHYREIFDIAFPDEQAEALAVER
notes: human mitochondrial LonP1, mature protein, residues 68-959 of UniProt P36776, with K898A; The substrate is trapped as a covalent ester intermediate on S855; also called Lon^K898A; substrate-trapped Lon; not shown: His6, N-terminal, cleaved

Legend:
[1] = target: T1, human mitochondrial Lon, full-length mature form (68-959), wild type (human, UniProt P36776 68-959); assay: cryo-EM structure; 0.5-0.7 mg/ml Lon construct in 20 mM HEPES pH 7.5, 100 mM NaCl, 10 mM MgCl2, 3% glycerol, 2 mM ATP added to 0.2 mg/ml TFAM, 30 s at room temperature, then vitrified; single-particle reconstruction; conditions: both partners purified
T1 construct: human mitochondrial LonP1, mature protein, residues 68-959 of UniProt P36776; Homohexamer in the cryo-EM structure; vector pNIC28-Bsa4; also called LonP1; wt-Lon; not shown: His6, N-terminal, cleaved
T1 sequence (looked up): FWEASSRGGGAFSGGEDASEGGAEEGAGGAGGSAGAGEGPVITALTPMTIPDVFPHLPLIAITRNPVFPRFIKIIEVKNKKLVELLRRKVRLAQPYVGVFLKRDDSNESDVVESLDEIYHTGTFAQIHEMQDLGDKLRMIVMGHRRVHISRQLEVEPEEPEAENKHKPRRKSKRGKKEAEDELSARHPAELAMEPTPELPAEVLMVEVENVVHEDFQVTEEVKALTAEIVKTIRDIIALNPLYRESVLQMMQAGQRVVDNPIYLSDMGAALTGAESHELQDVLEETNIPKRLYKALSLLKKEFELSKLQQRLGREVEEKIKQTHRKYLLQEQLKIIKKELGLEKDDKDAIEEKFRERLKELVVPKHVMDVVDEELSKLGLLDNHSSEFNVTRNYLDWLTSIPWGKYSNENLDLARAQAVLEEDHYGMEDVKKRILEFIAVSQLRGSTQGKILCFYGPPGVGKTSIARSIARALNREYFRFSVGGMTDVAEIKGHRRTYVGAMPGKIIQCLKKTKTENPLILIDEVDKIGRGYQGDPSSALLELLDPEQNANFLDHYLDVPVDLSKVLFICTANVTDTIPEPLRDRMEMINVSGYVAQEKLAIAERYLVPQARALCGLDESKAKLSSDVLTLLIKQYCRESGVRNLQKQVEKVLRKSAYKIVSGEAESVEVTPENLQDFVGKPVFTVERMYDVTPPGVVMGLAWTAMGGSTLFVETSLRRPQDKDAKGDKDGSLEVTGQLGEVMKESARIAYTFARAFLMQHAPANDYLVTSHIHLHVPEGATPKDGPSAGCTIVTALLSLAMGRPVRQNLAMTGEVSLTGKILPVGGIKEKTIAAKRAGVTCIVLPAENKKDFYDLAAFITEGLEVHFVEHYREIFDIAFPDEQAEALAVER

[2] = target: B3; assay: as above; conditions: both partners purified
[3] = target: the molecule itself; assay: as above
[4] = target: the molecule itself; assay: SEC; Superose 6 Increase 3.2/300; 25 mM Tris-HCl pH 8.0, 10% glycerol, 1 mM DTT, 50 mM NaCl, 2 mM ATP; protein incubated at 37°C for 10 min with 2 mM ATP and 10 mM MgCl2; fractions analysed by SDS-PAGE

binding result [1]: binds
binding result [2]: binds
B1: mitochondrial transcription factor A, mature (amino acids 43-246) (natural protein, UniProt Q00059 43-246, looked up)
chain: SSVLASCPKKPVSSYLRFSKEQLPIFKAQNPDAKTTELIRRIAQRWRELPDSKKKIYQDAYRAEWQVYKEEISRFKEQLTPSQIMSLEKEIMDKHLKRKAMTKKKELTLLGKPKRPRSAYNVYVAERFQEAKGDSPQEKLKTVKENWKNLSDSEKELYIQHAKEDETRYHNEMKSWEEQMIEVGRKDLLRRTIKKQRKYGAEEC
notes: mitochondrial transcription factor A (TFAM), mature, amino acids 43-246; also called TFAM; substrate; not shown: His6, N-terminal, cleaved

B2: human mitochondrial Lon (68-959) G106P, R563W, K594M (enzyme, UniProt P36776 68-959, looked up)
chain: FWEASSRGGGAFSGGEDASEGGAEEGAGGAGGSAGAGEPPVITALTPMTIPDVFPHLPLIAITRNPVFPRFIKIIEVKNKKLVELLRRKVRLAQPYVGVFLKRDDSNESDVVESLDEIYHTGTFAQIHEMQDLGDKLRMIVMGHRRVHISRQLEVEPEEPEAENKHKPRRKSKRGKKEAEDELSARHPAELAMEPTPELPAEVLMVEVENVVHEDFQVTEEVKALTAEIVKTIRDIIALNPLYRESVLQMMQAGQRVVDNPIYLSDMGAALTGAESHELQDVLEETNIPKRLYKALSLLKKEFELSKLQQRLGREVEEKIKQTHRKYLLQEQLKIIKKELGLEKDDKDAIEEKFRERLKELVVPKHVMDVVDEELSKLGLLDNHSSEFNVTRNYLDWLTSIPWGKYSNENLDLARAQAVLEEDHYGMEDVKKRILEFIAVSQLRGSTQGKILCFYGPPGVGKTSIARSIARALNREYFRFSVGGMTDVAEIKGHRWTYVGAMPGKIIQCLKKTKTENPLILIDEVDMIGRGYQGDPSSALLELLDPEQNANFLDHYLDVPVDLSKVLFICTANVTDTIPEPLRDRMEMINVSGYVAQEKLAIAERYLVPQARALCGLDESKAKLSSDVLTLLIKQYCRESGVRNLQKQVEKVLRKSAYKIVSGEAESVEVTPENLQDFVGKPVFTVERMYDVTPPGVVMGLAWTAMGGSTLFVETSLRRPQDKDAKGDKDGSLEVTGQLGEVMKESARIAYTFARAFLMQHAPANDYLVTSHIHLHVPEGATPKDGPSAGCTIVTALLSLAMGRPVRQNLAMTGEVSLTGKILPVGGIKEKTIAAKRAGVTCIVLPAENKKDFYDLAAFITEGLEVHFVEHYREIFDIAFPDEQAEALAVER
notes: human mitochondrial LonP1, mature protein, residues 68-959 of UniProt P36776, with the mutations G106P, R563W and K594M that arose spontaneously on cloning; also called Lon^Apo; substrate-free form of Lon; not shown: His6, N-terminal, cleaved
binding result [3]: binds

Binder: B3
stoichiometry N [3]: 6

B4: human mitochondrial Lon (68-959) L396A (enzyme, UniProt P36776 68-959, looked up)
chain: FWEASSRGGGAFSGGEDASEGGAEEGAGGAGGSAGAGEGPVITALTPMTIPDVFPHLPLIAITRNPVFPRFIKIIEVKNKKLVELLRRKVRLAQPYVGVFLKRDDSNESDVVESLDEIYHTGTFAQIHEMQDLGDKLRMIVMGHRRVHISRQLEVEPEEPEAENKHKPRRKSKRGKKEAEDELSARHPAELAMEPTPELPAEVLMVEVENVVHEDFQVTEEVKALTAEIVKTIRDIIALNPLYRESVLQMMQAGQRVVDNPIYLSDMGAALTGAESHELQDVLEETNIPKRLYKALSLLKKEFELSKLQQRLGREVEEKIKQTHRKYLAQEQLKIIKKELGLEKDDKDAIEEKFRERLKELVVPKHVMDVVDEELSKLGLLDNHSSEFNVTRNYLDWLTSIPWGKYSNENLDLARAQAVLEEDHYGMEDVKKRILEFIAVSQLRGSTQGKILCFYGPPGVGKTSIARSIARALNREYFRFSVGGMTDVAEIKGHRRTYVGAMPGKIIQCLKKTKTENPLILIDEVDKIGRGYQGDPSSALLELLDPEQNANFLDHYLDVPVDLSKVLFICTANVTDTIPEPLRDRMEMINVSGYVAQEKLAIAERYLVPQARALCGLDESKAKLSSDVLTLLIKQYCRESGVRNLQKQVEKVLRKSAYKIVSGEAESVEVTPENLQDFVGKPVFTVERMYDVTPPGVVMGLAWTAMGGSTLFVETSLRRPQDKDAKGDKDGSLEVTGQLGEVMKESARIAYTFARAFLMQHAPANDYLVTSHIHLHVPEGATPKDGPSAGCTIVTALLSLAMGRPVRQNLAMTGEVSLTGKILPVGGIKEKTIAAKRAGVTCIVLPAENKKDFYDLAAFITEGLEVHFVEHYREIFDIAFPDEQAEALAVER
notes: human mitochondrial LonP1, mature protein, residues 68-959 of UniProt P36776, with L396A; also called L396A Lon mutant; Lon L396A; not shown: His6, N-terminal, cleaved
binding result [4]: binds
